Measured values taken from patent US20090023900 (published 2009).

Columns and labels:
integrin alphaIIbbeta3 = integrin alphaIIbbeta3 (human, UniProt P08514); assay: ELISA
integrin alphaVbeta5 = molecular target: T1, integrin alphaVbeta5 (human, UniProt P06756); assay: ELISA
T1 chain 1: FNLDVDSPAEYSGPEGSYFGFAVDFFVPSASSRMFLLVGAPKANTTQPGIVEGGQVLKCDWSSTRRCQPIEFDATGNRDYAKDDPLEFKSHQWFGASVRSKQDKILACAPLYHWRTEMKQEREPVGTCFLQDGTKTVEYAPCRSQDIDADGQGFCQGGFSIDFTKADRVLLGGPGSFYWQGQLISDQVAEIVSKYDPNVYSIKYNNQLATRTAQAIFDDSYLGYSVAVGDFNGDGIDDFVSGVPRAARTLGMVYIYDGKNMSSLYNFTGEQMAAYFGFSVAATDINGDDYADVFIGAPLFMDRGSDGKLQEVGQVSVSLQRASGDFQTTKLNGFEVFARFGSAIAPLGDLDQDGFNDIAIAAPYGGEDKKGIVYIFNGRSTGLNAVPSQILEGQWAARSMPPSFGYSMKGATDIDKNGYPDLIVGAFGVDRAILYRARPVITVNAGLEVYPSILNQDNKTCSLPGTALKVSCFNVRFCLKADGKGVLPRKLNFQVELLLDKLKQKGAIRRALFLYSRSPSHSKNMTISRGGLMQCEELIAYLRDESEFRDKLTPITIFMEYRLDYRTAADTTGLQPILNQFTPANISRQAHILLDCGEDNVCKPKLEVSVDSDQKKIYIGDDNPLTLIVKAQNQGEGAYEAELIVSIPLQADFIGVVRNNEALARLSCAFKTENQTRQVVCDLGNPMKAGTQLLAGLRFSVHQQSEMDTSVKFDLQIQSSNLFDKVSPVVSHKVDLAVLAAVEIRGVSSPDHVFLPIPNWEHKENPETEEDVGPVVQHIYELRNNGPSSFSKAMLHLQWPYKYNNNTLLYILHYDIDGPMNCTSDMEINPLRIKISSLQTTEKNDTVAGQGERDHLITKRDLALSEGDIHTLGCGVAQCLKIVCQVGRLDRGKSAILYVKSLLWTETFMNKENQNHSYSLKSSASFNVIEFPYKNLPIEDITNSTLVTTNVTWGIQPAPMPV
T1 chain 2: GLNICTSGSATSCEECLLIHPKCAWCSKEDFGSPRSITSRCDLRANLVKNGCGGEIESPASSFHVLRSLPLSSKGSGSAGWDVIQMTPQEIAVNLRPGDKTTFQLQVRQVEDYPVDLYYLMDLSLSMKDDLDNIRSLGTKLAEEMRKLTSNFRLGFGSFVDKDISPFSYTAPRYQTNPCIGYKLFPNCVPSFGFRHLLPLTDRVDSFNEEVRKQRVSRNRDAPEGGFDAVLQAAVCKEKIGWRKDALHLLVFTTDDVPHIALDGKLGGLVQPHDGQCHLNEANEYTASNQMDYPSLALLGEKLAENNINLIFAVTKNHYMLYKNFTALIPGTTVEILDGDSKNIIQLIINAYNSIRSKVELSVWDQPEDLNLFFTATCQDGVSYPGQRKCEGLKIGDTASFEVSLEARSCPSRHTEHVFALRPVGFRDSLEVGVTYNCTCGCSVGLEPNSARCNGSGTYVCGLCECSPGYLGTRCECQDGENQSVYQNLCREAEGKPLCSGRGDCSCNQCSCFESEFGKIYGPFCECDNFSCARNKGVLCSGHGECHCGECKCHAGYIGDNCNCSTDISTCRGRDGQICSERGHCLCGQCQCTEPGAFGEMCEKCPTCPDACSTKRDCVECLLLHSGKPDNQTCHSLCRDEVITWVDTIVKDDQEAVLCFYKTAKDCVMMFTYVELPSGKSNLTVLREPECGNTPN

binding result (integrin alphaIIbbeta3): no binding
binding result (integrin alphaVbeta5): no binding
B1: Vitaxin (antibody, V domains shown)
VH: QVQLVESGGGVVQPGRSLRLSCAASGFTFSSYDMSWVRQAPGKGLEWVAKVSSGGGSTYYLDTVQGRFTISRDNSKNTLYLQMNSLRAEDTAVYYCARHNYGSFAYWGQGTTVTVSS
VL: EIVLTQSPATLSLSPGERATLSCQASQSISNHLHWYQQRPGQAPRLLIKYRSQSISGIPARFSGSGSGTDFTLTISSLEPEDFAVYYCQQSGSWPHTFGGGTKVEIK
